Measured values from patent publication US20110159022A1 (published 2011).

Tests used:
HLA-DR13 (DRB1*1301) = HLA-DR13 (DRB1*1301) (human); test: competition ELISA, tracer biotin-B1 21-36
HLA-DRB5 (DRB5*0101) = HLA-DRB5 (DRB5*0101) (human); test: competition ELISA, tracer biotin-HA 306-318
HLA-DR1 (DRB1*0101) = HLA-DR1 (DRB1*0101) (human); test: competition ELISA, tracer biotin-HA 306-318
HLA-DR11 (DRB1*1101) = HLA-DR11 (DRB1*1101) (human); test: competition ELISA, tracer biotin-HA 306-318
HLA-DR4 (DRB1*0401) = HLA-DR4 (DRB1*0401) (human); test: competition ELISA, tracer biotin-HA 306-318
HLA-DRB3 (DRB3*0101) = HLA-DRB3 (DRB3*0101) (human); test: competition ELISA, tracer biotin-LOL 191-210
HLA-DR7 (DRB1*0701) = HLA-DR7 (DRB1*0701) (human); test: competition ELISA, tracer biotin-YKL
HLA-DRB4 (DRB4*0101) = HLA-DRB4 (DRB4*0101) (human); test: competition ELISA, tracer biotin-E2/E168
HLA-DP402 (DPB1*0402) = target: T1, HLA-DP402 (DPB1*0402) (human, UniProt P20036 29-222, limits assumed); test: competition ELISA, tracer biotin-Oxy 271-287
T1 construct: also called DP*0402

HLA-DP401 (DPB1*0401) = HLA-DP401 (DPB1*0401) (human, UniProt P20036 29-222, limits assumed); test: competition ELISA, tracer biotin-Oxy 271-287
HLA-DR3 (DRB1*0301) = HLA-DR3 (DRB1*0301) (human); test: competition ELISA, tracer biotin-MT 2-16
HLA-DR15 (DRB1*1501) = HLA-DR15 (DRB1*1501) (human); test: competition ELISA, tracer biotin-A3 152-166

Binder | relative binding activity (HLA-DR13 (DRB1*1301)) | relative binding activity (HLA-DRB5 (DRB5*0101)) | relative binding activity (HLA-DR1 (DRB1*0101)) | relative binding activity (HLA-DR11 (DRB1*1101)) | relative binding activity (HLA-DR4 (DRB1*0401)) | relative binding activity (HLA-DRB3 (DRB3*0101)) | relative binding activity (HLA-DR7 (DRB1*0701)) | relative binding activity (HLA-DRB4 (DRB4*0101)) | relative binding activity (HLA-DP402 (DPB1*0402)) | relative binding activity (HLA-DP401 (DPB1*0401)) | relative binding activity (HLA-DR3 (DRB1*0301)) | relative binding activity (HLA-DR15 (DRB1*1501))
GTKVRQGTLKKARYN (also called MDK15) [MDK 99-113] | 74 IC50 ratio to reference peptide | 215 IC50 ratio to reference peptide | 3000 IC50 ratio to reference peptide | – | – | – | – | – | – | – | – | –
ARYNAQCQETIRVTK (synthetic 15-mer of the human midkine precursor; also called MDK17) [MDK 110-124] | – | 15 IC50 ratio to reference peptide | 10 IC50 ratio to reference peptide | 69 IC50 ratio to reference peptide | 6 IC50 ratio to reference peptide | – | – | – | – | – | – | –
GTLKKARYNAQCQET (also called MDK16) [MDK 105-119] | – | – | 97 IC50 ratio to reference peptide | 1010 IC50 ratio to reference peptide | 492 IC50 ratio to reference peptide | – | – | – | – | – | – | –
MQHRGFLLLTLLALL (synthetic 15-mer of the human midkine precursor; also called peptide 1-15) [MDK 1-15] | – | 161 IC50 ratio to reference peptide | 21 IC50 ratio to reference peptide | 7 IC50 ratio to reference peptide | – | 267 IC50 ratio to reference peptide | 49 IC50 ratio to reference peptide | 204 IC50 ratio to reference peptide | 19 IC50 ratio to reference peptide | 20 IC50 ratio to reference peptide | – | –
KDKVKKGGPGSECAE (also called MDK6) [MDK 25-39] | – | – | 1250 IC50 ratio to reference peptide | – | – | – | – | – | – | – | – | –
QTQRIRCRVPCNWKK (also called MDK9) [MDK 64-78] | – | 61 IC50 ratio to reference peptide | – | 504 IC50 ratio to reference peptide | 558 IC50 ratio to reference peptide | – | 2070 IC50 ratio to reference peptide | 1160 IC50 ratio to reference peptide | – | – | – | –
CNWKKEFGADCKYKF (also called MDK11) [MDK 74-88] | – | 714 IC50 ratio to reference peptide | 333 IC50 ratio to reference peptide | 1230 IC50 ratio to reference peptide | – | 877 IC50 ratio to reference peptide | – | – | – | – | 2 IC50 ratio to reference peptide | –
LLALTSAVAKKKDKV (synthetic 15-mer of the human midkine precursor; also called MDK4; peptide 14-28) [MDK 14-28] | 45 IC50 ratio to reference peptide | 0.1 IC50 ratio to reference peptide | 34 IC50 ratio to reference peptide | 48 IC50 ratio to reference peptide | 401 IC50 ratio to reference peptide | – | 590 IC50 ratio to reference peptide | – | – | – | – | –
CKYKFENWGACDGGT (also called MDK13) [MDK 84-98] | – | 292 IC50 ratio to reference peptide | – | – | 362 IC50 ratio to reference peptide | – | – | – | 49 IC50 ratio to reference peptide | 52 IC50 ratio to reference peptide | – | –
CRVPCNWKKEFGADC (also called MDK10) [MDK 70-84] | – | – | 53 IC50 ratio to reference peptide | – | 1560 IC50 ratio to reference peptide | 621 IC50 ratio to reference peptide | – | – | – | 7 IC50 ratio to reference peptide | – | –
KEFGADCKYKFENWG (also called MDK12) [MDK 78-92] | – | 114 IC50 ratio to reference peptide | – | 800 IC50 ratio to reference peptide | 457 IC50 ratio to reference peptide | 226 IC50 ratio to reference peptide | – | – | 378 IC50 ratio to reference peptide | 167 IC50 ratio to reference peptide | 1 IC50 ratio to reference peptide | –
LTLLALLALTSAVAK (synthetic 15-mer of the human midkine precursor; also called MDK3; peptide 9-23) [MDK 9-23] | – | 2 IC50 ratio to reference peptide | 0.2 IC50 ratio to reference peptide | 0.3 IC50 ratio to reference peptide | 1 IC50 ratio to reference peptide | – | 13 IC50 ratio to reference peptide | – | 29 IC50 ratio to reference peptide | 94 IC50 ratio to reference peptide | – | 5 IC50 ratio to reference peptide
RGFLLLTLLALLALT (synthetic 15-mer of the human midkine precursor; also called MDK2; peptide 4-18) [MDK 4-18] | – | 46 IC50 ratio to reference peptide | 21 IC50 ratio to reference peptide | 94 IC50 ratio to reference peptide | – | 37 IC50 ratio to reference peptide | 20 IC50 ratio to reference peptide | 65 IC50 ratio to reference peptide | 18 IC50 ratio to reference peptide | 6 IC50 ratio to reference peptide | – | 19 IC50 ratio to reference peptide
ETIRVTKPCTPKTKA (also called MDK18) [MDK 119-133] | – | 26 IC50 ratio to reference peptide | 2 IC50 ratio to reference peptide | 763 IC50 ratio to reference peptide | 1290 IC50 ratio to reference peptide | – | 819 IC50 ratio to reference peptide | – | – | – | – | –
AEWAWGPCTPSSKDC (also called MDK7) [MDK 38-52] | – | – | 1300 IC50 ratio to reference peptide | 923 IC50 ratio to reference peptide | 1860 IC50 ratio to reference peptide | – | – | – | 239 IC50 ratio to reference peptide | – | – | –
ENWGACDGGTGTKVR (also called MDK14) [MDK 89-103] | – | – | 1460 IC50 ratio to reference peptide | – | – | 2330 IC50 ratio to reference peptide | – | – | – | – | – | –
